Assay results: US20260035450A1

What was measured:
[1] = molecular target: T1, recombinant human ANGPTL3 (rhANGPTL3) (SEQ ID NO:1) (human) (UniProt Q9Y5C1); test: cell-based or functional assay
T1 sequence: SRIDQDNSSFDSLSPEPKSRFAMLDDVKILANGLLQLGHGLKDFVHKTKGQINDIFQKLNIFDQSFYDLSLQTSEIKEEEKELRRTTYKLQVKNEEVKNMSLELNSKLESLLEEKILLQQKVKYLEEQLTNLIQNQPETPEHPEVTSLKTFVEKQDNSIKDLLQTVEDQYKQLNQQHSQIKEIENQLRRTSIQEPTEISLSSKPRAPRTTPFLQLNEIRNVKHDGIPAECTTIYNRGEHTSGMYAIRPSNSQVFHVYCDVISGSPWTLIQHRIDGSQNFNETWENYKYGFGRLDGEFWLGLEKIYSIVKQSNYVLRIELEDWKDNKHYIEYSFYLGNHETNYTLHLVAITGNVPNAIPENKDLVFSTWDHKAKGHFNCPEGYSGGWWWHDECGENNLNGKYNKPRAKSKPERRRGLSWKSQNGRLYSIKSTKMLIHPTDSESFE

[2] = molecular target: T1, recombinant human ANGPTL3 (rhANGPTL3) (SEQ ID NO:1) (human); test: SE-UPLC of antibody mixed with rhANGPTL3 (1:3 molar ratio), run buffer pH 6.0
[3] = molecular target: T1, recombinant human ANGPTL3 (rhANGPTL3) (SEQ ID NO:1) (human); test: SE-UPLC of antibody mixed with rhANGPTL3 (1:3 molar ratio), run buffer pH 7.4
[4] = molecular target: T1, recombinant human ANGPTL3 (rhANGPTL3) (SEQ ID NO:1) (human); test: SE-UPLC of antibody mixed with rhANGPTL3 (1:3 molar ratio); change of mean retention time from pH 7.4 to 6.0

evinacumab sequence identical analogue (SIA) (antibody), sequence (VH): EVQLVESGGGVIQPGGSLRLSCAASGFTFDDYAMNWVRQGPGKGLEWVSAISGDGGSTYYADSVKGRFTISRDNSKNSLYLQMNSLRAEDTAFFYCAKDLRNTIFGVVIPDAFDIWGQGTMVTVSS
evinacumab sequence identical analogue (SIA) (antibody), sequence (VL): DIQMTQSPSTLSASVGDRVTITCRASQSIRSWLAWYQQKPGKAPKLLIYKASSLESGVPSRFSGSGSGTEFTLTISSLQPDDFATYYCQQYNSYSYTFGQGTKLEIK

## evinacumab sequence identical analogue (SIA) (antibody)
[1]
  Average relative IC50 (inhibition of rhANGPTL3-mediated LPL inhibition) (relative to evinacumab SIA): 1
[2]
  MRT (mean retention time of immune complex), pH6.0: 3.82 min
  RT (retention time of immune complex), pH6.0: 3.83 min
[3]
  MRT (mean retention time of immune complex), pH7.4: 3.72 min
  RT (retention time of immune complex), pH7.4: 3.72 min
[4]
  MRT shift, pH7.4 -> pH6.0: 0.1 min
